Laboratory results taken from publication PMC3328432, “Molecular Requirements for Peroxisomal Targeting of Alanine-Glyoxylate Aminotransferase as an Essential Determinant in Primary Hyperoxaluria Type 1” (PLoS Biology, 2012).

Molecular target: AGT of all performed ITC measurements (wild type and AGT mutants of Table S1)
Assay: ITC; 25–46 µM AGT as sample in the cell, 250–460 µM Pex5p(C) as titration ligand, 27 injections of 10 µl; 25°C; 100 mM HEPES pH 7.5, 150 mM NaCl, 2 mM ß-mercaptoethanol

## C-terminal cargo-binding segment of human Pex5p (residues 315-639) (from UniProt P50542 315-639) (domain or fragment)
  stoichiometry N: 1.02
